# Measurements from patent publication US20220073604A1 (ARGENX BVBA, published 2022).
# Numbering of substitutions follows the chain as printed. Several values for one entry are separate records, joined by “and”; a condition that tells them apart may be missing. Equal values may be shown once.
# B1: Fab 111A7 with the CDR3 methionine changed to T (Fab, V domains shown)
# VH: EVQLLESGGGLVQPGGSLRLSCAASGFTFSSYAMSWVRQAPGKGPEWVSRISAGGGSTYYGDSVKGRFTISRDNSKNTLYLQMNSLRAEDTAVYYCANRAGWGTGDYWGQGTLVTVSS
# VL: QTVVTQEPSFSVSPGGTVTLTCGLSSGSVTASNYPGWYQQTPGQAPRALIYSTNDRHSGVPDRFSGSISGNKAALTITGAQAEDEADYYCALDIGDITEFGGGTQLTVL
# B2: Fab 111A7 with the CDR3 methionine changed to V (Fab, V domains shown)
# VH: B1 VH with T104V
# VL: B1 VL
# B3: Fab 111A7 with the CDR3 methionine changed to P (Fab, V domains shown)
# VH: B1 VH with T104P
# VL: B1 VL
# B4: 111A7 Fab (W98, M100) (Fab, V domains shown)
# VH: B1 VH with T104M
# VL: B1 VL
# notes: also called WGM
# B5: Fab 17F10 (Fab, V domains shown)
# VH: EVQLQESGPGLVKPSQTLSLTCTVSGGSIATSYYAWSWIRQPPGKGLEWMGVIDYDGDTYYKPSLKSRTSISRDTSKNQFSLQLSSVTPEDTAVYYCARAGLGDSYYLGTYYAMDYWGKGTLVTVSS
# VL: QAGLTQPPSVSGSPGKTVTISCAGTTSDVGTGNFVSWYQQLPGMAPKLLIYDVNKRASGIADRFSGSKSGNTASLTISGLQSEDEADYYCASYRSLNNVVFGGGTHLTVLG
# notes: Fab; also called 17F10 pur Fab 68 nM
# B6: BE8-Fab (Fab, from another filing, V domains shown)
# VH: QVTLKESGPGILKPSQTLSLTCSFSGFSLSTSGMGVGWIRQPSGKGLEWLAHIWWDDDKYYNPSLKSQLTISKDTSRNQVFLKITSVDTADTATYYCARSYDDYLYYALDYWGQGTSVTVSS
# VL: DIVMTQSPATLSVTPGDRVSLSCRASQSISDYLHWYQQKSHESPRLLIKSVSQSISGIPSRFSGSGSGSDFTLSINSVEPEDVGVYYCQNGHSFPLTFGAGTKLELK
# B7: 129D3 (germlined variant of 68F2), full-length IgG1 (antibody, V domains shown)
# VH: EVQLQESGPGLVKPSQTLSLTCTVSGGSITSRYYAWSWIRQPPGKGLEWIGVIDYDGDTYYSPSLKSRVSISWDTSKNQFSLKLSSVTPADTAVYYCARDPDVVTGFHYDYWGQGTMVTVSS
# VL: QSALTQPPSVSGTPGQSVTISCAGANNDIGTYAYVSWYQQLPGTAPKLMIYKVTTRASGIPDRFSGSKSGNTASLTISGLQAEDEADYYCASYRNFNNAVFGTGTKLTVL
# B8: Fab 68F2 (Fab, V domains shown)
# VH: B7 VH with S31T, I50M, V69T, K83Q, A90E, M117Q
# VL: QSALTQPPLVSGTPGQTVTISCAGANNDIGTYAYVSWYQQLPGTAPKLLIYKVTTRASGIPSRFSGSKSGNTASLTISGLQSEDEADYYCASYRNFNNAVFGRGTHLTVLG
# notes: VL-shuffled Fab of 20A4; for the crystal the Fab was made from 68F2 mAb with papain; also called 68F2 Fab
# B9: 61H7 (antibody, V domains shown)
# VH: EVQLVESGGGLVQPGGSLRLSCAASGFTFSSYRMYWVRQPPGKGLEWVSAISAGGGSTYYGDSVKGRFTISRDNAKNTVYLQMNSLKPEDTAVYYCANRAGWGMGDYWGQGTQVTVSS
# VL: QTVVTQEPSLSVSPGGTVTLTCGLSSGSVTASNYPGWFQQTPGQAPRALIYSTNDRHSGVPSRFSGSISGNKAALTITGAQPEDEADYYCALDIGDITEFGGGTHLTVLG
# B10: Fab 24D10 (Fab, V domains shown)
# VH: QLQVVESGGGLVQPGGSLRLSCAASGFTFSSYAMSWVRQAPGKGPEWVSRISSGGGSTSYADSVKGRFTISRDNAKNTLYLQMNSLKPEDTAVYYCANRAGWGMGDYWGQGTQVTVSS
# VL: B9 VL
# notes: Fab; also called pur24d10; 28f12(24D10)
# B11: Fab 61H7 (Fab, V domains shown)
# VH: B9 VH
# VL: B9 VL
# notes: Fab; also called pur61H7; 61H7 Fab
# How the values were obtained:
# [1] = target: human IL-6 (as added in the B9 and 7TD1 bioassays) (human) (UniProt P05231)
# [2] = target: human IL-6 (as added in the B9 and 7TD1 bioassays) (human) (UniProt P05231); test: cell-based or functional assay
# [3] = target: T1, bacterially produced cynomolgus monkey IL-6 (cynomolgus monkey, UniProt P79341 28-212, limits assumed); test: off-rate of Fab 111A7 variant on bact-cy IL-6 (binding kinetics, SPR presumed; n = 2)
# T1 construct: also called bact-cy IL-6; HIS-cyIL-6
# [4] = target: IL-6 (bact-hIL-6, euk-hIL-6 and bact-cy IL-6; 'average binding' of Table 21); test: average binding level in the off-rate screen (unit not given; n = 2)
# [5] = target: T1, bacterially produced cynomolgus monkey …; test: off-rate of Fab 111A7 variant on bact-cy IL-6 (binding kinetics, SPR presumed; n = 5)
# [6] = target: IL-6 (bact-hIL-6, euk-hIL-6 and bact-cy IL-6; 'average binding' of Table 21); test: average binding level in the off-rate screen (unit not given; n = 5)
# [7] = target: T2, eukaryotically produced human IL-6 (human, UniProt P05231 30-212); test: SPR (Biacore), periplasmic Fab
# T2 construct: Immobilised on the Biacore chip; also called Euk IL-6; EUK IL-6 (3-1)
# Procedure: (§1) The binding kinetics of periplasmic fractions of bacteria containing the mutant Fabs were tested using surface Plasmon resonance (Biacore) and the off-rate for each mutant was determined.
# [8] = target: T3, bacterially produced human IL-6 (human, UniProt P05231 30-212); test: SPR (Biacore), periplasmic Fab
# T3 construct: Immobilised on the Biacore chip; also called BACT IL-6 (2-1); bactIL-6
# Procedure: as §1
# [9] = target: T4, eukaryotically produced human IL-6 (human, UniProt P05231 30-212); test: SPR; purified Fab, 68 nM
# T4 construct: also called eukIL-6; Euk IL-6
# cynomolgus monkey IL-6 [10] = target: T5, cynomolgus monkey IL-6 (cynomolgus monkey, UniProt P79341 28-212, limits assumed); test: SPR; purified Fab, 68 nM
# T5 construct: also called HIS-cyIL-6
# [11] = target: T6, bacterially produced human IL-6 (human, UniProt P05231 30-212); test: SPR; purified Fab, 68 nM
# T6 construct: also called bactIL-6; prokaryotic IL-6
# [12] = target: T4, eukaryotically produced human IL-6; test: SPR; purified Fab
# cynomolgus monkey IL-6 [13] = target: T5, cynomolgus monkey IL-6; test: SPR; purified Fab
# [14] = target: T6, bacterially produced human IL-6; test: SPR; purified Fab
# [15] = target: T4, eukaryotically produced human IL-6; test: SPR; purified Fab; IL-6 coated on CM5 chip
# Procedure: (§2) From the washing phase the off-rate (kd) was determined, while from the injection phase the on-rate (ka) was calculated using the concentration and off-rate as parameters.
# [16] = target: T6, bacterially produced human IL-6; test: SPR; purified Fab; IL-6 coated on CM5 chip
# Procedure: as §2
# [17] = target: bacterially produced human IL-6 (human) (UniProt P05231); test: SPR (Biacore), purified Fab
# [18] = target: eukaryotically produced human IL-6 (human) (UniProt P05231); test: SPR (Biacore), purified Fab
# human IL-6 [19] = target: T7, human IL-6 (human, UniProt P05231 30-212); test: SPR; purified Fab; average of the IL-6 channels
# [20] = target: bacterially produced human IL-6 (human) (UniProt P05231); test: SPR; purified Fab; ratio bact to euk IL-6
# [21] = target: bacterially produced human IL-6 (human) (UniProt P05231); test: SPR; purified Fab
# [22] = target: eukaryotically produced human IL-6 (human) (UniProt P05231); test: SPR; purified Fab
# [23] = target: IL-6 surfaces of Table 8 (Bact, euk, cyno), average; test: SPR (Biacore), off-rate screen
# [24] = target: T8, human IL-6 (as added in the B9 and 7TD1 bioassays) (human, UniProt P05231 30-212); test: cell-based or functional assay
# [25] = target: T8, human IL-6 (as added in the B9 and 7TD1 …); test: cell-based or functional assay; remark: listed apart in the source
# [26] = target: T8, human IL-6 (as added in the B9 and 7TD1 …); test: cell-based or functional assay; remark: listed apart in the source
# human IL-6 [27] = target: T7, human IL-6; test: comparison of affinities after VL shuffling
# [28] = target: T8, human IL-6 (as added in the B9 and 7TD1 …); test: cell-based or functional assay; remark: listed apart in the source
# [29] = target: T6, bacterially produced human IL-6; test: SPR; purified Fab over biotinylated IL-6 on streptavidin chip
# Procedure: as §2
# human IL-6 [30] = target: T7, human IL-6; test: SPR; periplasmic fraction; average of the IL-6 channels; design: unit not given here
# [31] = target: T4, eukaryotically produced human IL-6; test: SPR; periplasmic fraction
# Procedure: as §2
# [32] = target: T6, bacterially produced human IL-6; test: SPR; periplasmic fraction
# Procedure: as §2
# [33] = target: T4, eukaryotically produced human IL-6; test: SPR; purified Fab; remark: listed apart in the source
# [34] = target: T6, bacterially produced human IL-6; test: SPR; purified Fab; remark: listed apart in the source
# [35] = target: T6, bacterially produced human IL-6; test: SPR; periplasmic fraction; ratio bact to euk IL-6
# Procedure: as §2
# [36] = target: T6, bacterially produced human IL-6; test: SPR; purified Fab; ratio bact to euk IL-6
molecule,measurement,setting,value
"CNTO136 (benchmark anti-IL-6 antibody, humanized variant of CNTO328)","IC50 (read off the curve), B9 cell proliferation",[1],0.2 pM
same,"IC50, 7TD1 cells",[2],0.19 pM
same,"Potency relative to 68F2, 7TD1 cells",[2],3.49
B1,koff,[3],0.000144 s⁻¹
same,average binding,[4],130
B2,koff,[3],0.000242 s⁻¹
same,average binding,[4],163
B3,koff,[5],0.000899 s⁻¹
same,average binding,[6],66
B4,koff,[7],4.67e-05 s⁻¹
same,koff,[8],5e-05 s⁻¹
B5,Kd,[9],14000 pM
same,koff,[9],0.00077 s⁻¹
same,Kd,cynomolgus monkey IL-6 [10],14000 pM
same,koff,cynomolgus monkey IL-6 [10],0.00078 s⁻¹
same,Kd,[11],19000 pM
same,koff,[11],0.00088 s⁻¹
same,Kd,[12],6000 pM
same,koff,[12],0.00072 s⁻¹
same,Kd,cynomolgus monkey IL-6 [13],620 pM
same,koff,cynomolgus monkey IL-6 [13],0.0007 s⁻¹
same,Kd,[14],43000 pM
same,koff,[14],0.0012 s⁻¹
same,Kd,[15],6000 pM
same,koff,[15],0.00072 s⁻¹
same,Kd,[16],43000 pM
same,koff,[16],0.0012 s⁻¹
B6,Kd,[17],280 pM
same,koff,[17],7.7e-05 s⁻¹
same,kon,[17],280000 M⁻¹ s⁻¹
same,Kd,[18],220 pM
same,koff,[18],7.7e-05 s⁻¹
same,kon,[18],360000 M⁻¹ s⁻¹
same,average binding,human IL-6 [19],207
same,ratio bact/euk,[20],1.05
same,koff,[21],9.41e-05 s⁻¹
same,koff,[22],8.59e-05 s⁻¹
same,Average binding (RU),[23],338 RU and 340 RU and 347 RU
B7,"IC50, 7TD1 proliferation assay, exp 22.06",[24],0.791 pM
same,"IC50, 7TD1 proliferation assay, exp 29.06",[24],0.574 pM
same,"Rel. Potency, 7TD1, exp 29.06",[24],0.98
same,"IC50 (read off the curve), B9 cell proliferation",[25],~0.06 pM
same,"IC50, 7TD1 cells (129D3#A1.1)",[26],0.25 pM
same,"IC50, 7TD1 cells (129D3U#15.1)",[26],0.23 pM
same,"Potency relative to 68F2, 7TD1 cells (129D3#A1.1)",[26],2.65
same,"Potency relative to 68F2, 7TD1 cells (129D3U#15.1)",[26],2.91
B8,fold affinity against parental 20A4,human IL-6 [27],10 fold
same,koff,[12],3.3e-05 s⁻¹
same,koff,[14],8e-05 s⁻¹
B9,"IC 50, B9 cell proliferation (batch 12.8)",[28],1.83 pM
same,"IC 50, B9 cell proliferation (batch A8.11)",[28],1.57 pM
same,"IC50 (read off the curve), B9 cell proliferation",[25],~1 pM
same,"IC50, 7TD1 cells (batch A8.11)",[26],3.48 pM
same,"Potency relative to 68F2, 7TD1 cells (batch A8.11)",[26],0.19
B10,Ka,[29],3.7e+09 M⁻¹
same,Kd,[29],270 pM
same,koff,[29],1.69e-05 s⁻¹
same,kon,[29],62700 M⁻¹ s⁻¹
same,average binding,human IL-6 [30],167
same,Kd,[15],850 pM
same,koff,[15],0.00017 s⁻¹
same,Kd,[16],1200 pM
same,koff,[16],0.00019 s⁻¹
same,koff,[31],0.000144 s⁻¹
same,koff,[32],0.000183 s⁻¹
same,koff,[33],0.000125 s⁻¹
same,koff,[34],0.000143 s⁻¹
same,ratio bact/euk,[35],1.09
same,ratio bact/euk,[36],1.14
B11,koff,[33],3.68e-05 s⁻¹
same,koff,[34],4.22e-05 s⁻¹
same,ratio bact/euk,[36],1.13
